Laboratory results: article PMC11149935, “SAFB regulates hippocampal stem cell fate by targeting Drosha to destabilize Nfib mRNA” (eLife, 2024)

Target: T1, Drosha (endogenous, N2A cells) (mouse (endogenous in N2A), UniProt Q5HZJ0 1-1373)
T1 construct: Drosha, endogenous protein of N2A neuroblastoma cells (ATCC CCL-131); source: endogenous, N2A lysate
T1 sequence (looked up): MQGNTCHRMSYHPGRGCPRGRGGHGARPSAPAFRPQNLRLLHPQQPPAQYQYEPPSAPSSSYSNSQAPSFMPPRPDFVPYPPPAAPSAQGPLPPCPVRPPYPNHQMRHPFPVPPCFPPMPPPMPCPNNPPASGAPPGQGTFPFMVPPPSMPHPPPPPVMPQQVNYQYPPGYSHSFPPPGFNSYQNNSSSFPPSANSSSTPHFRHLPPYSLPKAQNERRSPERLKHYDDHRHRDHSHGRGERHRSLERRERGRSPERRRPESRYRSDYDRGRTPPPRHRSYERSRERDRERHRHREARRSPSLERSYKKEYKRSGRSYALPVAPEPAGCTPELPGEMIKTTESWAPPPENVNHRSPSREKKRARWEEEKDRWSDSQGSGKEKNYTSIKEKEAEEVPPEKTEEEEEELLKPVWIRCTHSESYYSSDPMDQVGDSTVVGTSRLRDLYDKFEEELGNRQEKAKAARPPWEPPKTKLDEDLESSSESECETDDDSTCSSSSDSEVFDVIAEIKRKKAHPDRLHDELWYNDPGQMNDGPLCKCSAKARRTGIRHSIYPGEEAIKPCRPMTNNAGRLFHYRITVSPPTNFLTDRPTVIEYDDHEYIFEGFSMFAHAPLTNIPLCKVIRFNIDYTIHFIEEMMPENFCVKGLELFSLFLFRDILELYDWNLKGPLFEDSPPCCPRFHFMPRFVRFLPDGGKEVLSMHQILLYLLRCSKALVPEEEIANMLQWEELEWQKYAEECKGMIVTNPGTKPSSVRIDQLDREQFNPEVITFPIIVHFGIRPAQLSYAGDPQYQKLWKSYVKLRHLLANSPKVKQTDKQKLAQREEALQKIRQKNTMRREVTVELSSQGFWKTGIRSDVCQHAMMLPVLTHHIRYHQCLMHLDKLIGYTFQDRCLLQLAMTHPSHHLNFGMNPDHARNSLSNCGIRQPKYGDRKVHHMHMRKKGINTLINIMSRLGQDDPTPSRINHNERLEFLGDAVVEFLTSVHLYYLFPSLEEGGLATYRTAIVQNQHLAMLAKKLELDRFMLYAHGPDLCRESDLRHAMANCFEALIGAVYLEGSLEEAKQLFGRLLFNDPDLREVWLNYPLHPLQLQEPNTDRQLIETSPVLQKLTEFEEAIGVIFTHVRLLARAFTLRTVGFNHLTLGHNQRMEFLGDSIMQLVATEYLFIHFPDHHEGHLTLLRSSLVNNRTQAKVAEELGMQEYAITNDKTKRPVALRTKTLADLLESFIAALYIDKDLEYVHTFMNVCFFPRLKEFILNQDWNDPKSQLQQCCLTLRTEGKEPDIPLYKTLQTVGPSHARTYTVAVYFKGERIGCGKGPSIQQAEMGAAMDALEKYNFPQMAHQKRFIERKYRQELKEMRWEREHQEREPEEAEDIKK
Test: co-IP; N2A cells transfected with SAFB-HA or SAFB-ΔRE-HA, 48 hr; IP of endogenous Drosha, anti-HA immunoblot, densitometry relative to Drosha; IgG isotype control IP
Details: partners not purified

B1: SAFB-ΔRE-HA (natural protein, UniProt Q15424 1-915, looked up)
chain: MAETLSGLGDSGAAGAAALSSASSETGTRRLSDLRVIDLRAELRKRNVDSSGNKSVLMERLKKAIEDEGGNPDEIEITSEGNKKTSKRSSKGRKPEEEGVEDNGLEENSGDGQEDVETSLENLQDIDIMDISVLDEAEIDNGSVADCVEDDDADNLQESLSDSRELVEGEMKELPEQLQEHAIEDKETINNLDTSSSDFTILQEIEEPSLEPENEKILDILGETCKSEPVKEESSELEQPFAQDTSSVGPDRKLAEEEDLFDSAHPEEGDLDLASESTAHAQSSKADSLLAVVKREPAEQPGDGERTDCEPVGLEPAVEQSSAASELAEASSEELAEAPTEAPSPEARDSKEDGRKFDFDACNEVPPAPKESSTSEGADQKMSSPEDDSDTKRLSKEEKGRSSCGRNFWVSGLSSTTRATDLKNLFSKYGKVVGAKVVTNARSPGARCYGFVTMSTAEEATKCINHLHKTELHGKMISVEKAKNEPVGKKTSDKRDSDGKKEKSSNSDRSTNLKRDDKCDRKDDAKKGDDGSGEKSKDQDDQKPGPSERSRAVRRPYDLDRRDDAYWPEAKRAALDERYHSDFNRQDRFHDFDHRDRGRYPDHSVDRREGSRSMMGEREGQHYPERHGGPERHGRDSRDGWGGYGSDKRMSEGRGLPPPPRRDWGDHGRREDDRSWQGTADGGMMDRDHKRWQGGERSMSGHSGPGHMMNRGGMSGRGSFAPGGASRGHPIPHGGMQGGFGGQSRGSRPSDARFTRRY
notes: SAFB lacking the RE-rich region (amino acids 552-708), made from CAG::Safb-HA-IRES-Cfp by Q5 site-directed mutagenesis; Parent is m26; Also expressed in DG NSCs for the reporter assay; also called CAG::Safb-ΔRE-HA-IRES-Cfp; source: N2A, transfected (TransFectin), in lysate
fold reduction in binding against SAFB WT: 5.7 fold
